Experimental data reported in paper PMC2987765.

Molecular target: Flag-tagged full length Ack1 (human) (UniProt Q07912)
Experiment: co-IP; Cos7 cells transfected with FLAG-Ack1 alone or with HA-NKD or HA-KD; RIPA lysates (450-750 ug) incubated overnight at 4°C with FLAG M2 affinity gel, washed 5 times with RIPA buffer; blots with anti-HA and anti-FLAG; densitometry ratio HA-Ack1/Flag-Ack1

fold co-immunoprecipitation against HA-KD: 3 fold
Substance: HA-tagged Ack1 NKD (amino terminus plus kinase domain) (from UniProt Q07912 1-385) (domain or fragment)
